The target of experiment [1] is full-length synuclein. As to the kind of experiment: ITC. In general terms: Isothermal titration calorimetry measures the heat released or taken up as one component is titrated into another.
The target in experiment [2] is full-length synuclein. As to the kind of experiment: ITC. This is another data set of the same source.

Where two headings read alike, the source gives them in different places.

For 3 molecules, Kd results are on record in US20210347868A1 (published 2021).

As usually defined, the Kd is the constant that tells how readily two partners part at equilibrium. A lower Kd goes with a tighter complex.

B1: Asyn-338.1 (antibody, V domains shown)
VH: QVQLVESGGDIVQPGGSLKLSCAASGFTFKSYWMHWVRQVPGKGLFWVSRINTFGNKTSYADSVRGRFSISRDNTKSILYLQMNSLKAEDTAVYYCARSTLGSFDYWGQGTLVTVSS
VL: AIQLTQSPDSLAVSLGERATINCKASQSLLYSSNNRNYLAWYQQKPGQPPKALIYWASTRESGVPDRFSGSGSGTDFTLTISSLQAEDVAVYYCHQYYTTHSFGQGTKLEIK
The molecule B1 displayed a Kd in the experiment with full-length synuclein [1] of 300 nM.

B2: Asyn-336.1 (antibody, V domains shown)
VH: EVQLVQSGGTLVQPGGSLRLSCAASGFTFSTYAISWVRQAPGRGLEWVSFITGDGSRILYADSVRGRFSISRDNSKNTLYLQMNSLRTDDTAMYYCVFNHYWGQGTLVTVSS
VL: B1 VL
B2 came in with a Kd in the experiment with full-length synuclein [1] of 1400 nM.

B3: Asyn-323.1 (antibody, V domains shown)
VH: EVQLLESGGGLVQPGGSLKLSCAASGFTFSASAMHWVRQTSDKRLEWVGRIRNKANNYATAYAASVKGRFTISRDDSKNTAYLQMNSLKTEDTAVYYCTRHLSLGGNSVDYWGQGTPVTVSS
VL: DVVMTQSPLSSPVTLGQPASISCRASQSPVHSDGNTYLSWLQQRPGQPPRLLIYTISNRFPGVPDRFSGSGAGTDFTLRISRVEAEDVGVYYCMQGTQFPYTFGQGTKLEIK
In the experiment with full-length synuclein [2], B3 came in with a Kd of 2800 nM.
